Laboratory results reported in patent publication US20190248902A1 (published 2019).
Numbering of substitutions follows the chain as printed.

T1: Mouse ASGR-1 (mouse, UniProt P34927 1-284)
T1 construct: Expressed on HEK 293 cells or as membrane prep on beads; cDNA GenBank BC022106.1; also called muASGR-1; mASGR-1
T1 sequence: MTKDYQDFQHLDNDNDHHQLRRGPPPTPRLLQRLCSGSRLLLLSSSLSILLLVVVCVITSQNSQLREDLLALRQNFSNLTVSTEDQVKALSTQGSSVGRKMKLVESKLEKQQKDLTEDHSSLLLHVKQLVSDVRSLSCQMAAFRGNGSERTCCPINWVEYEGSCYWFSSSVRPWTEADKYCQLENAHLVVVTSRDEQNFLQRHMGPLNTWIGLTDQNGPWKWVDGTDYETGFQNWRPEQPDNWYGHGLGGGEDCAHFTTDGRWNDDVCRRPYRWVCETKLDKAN

B1: 194C10 (antibody, V domains shown)
VH: QVQLQQWGAGLLKPSETLSLTCAVSGGSFRYYYWSWIRQPPGKGLEWFGEINHSGSTNYNPSLKSRVTISIDTSKNQFSLKLRSVTAADTAVYYCARDYGAFDIWGQGTMVTVSS
VL: EIVLTQSPGTLSLSPGERATLSCRASPSVNSGYLAWYQQKPGQTPRLLIFGASSRATGIPDRFSASGSGADFTLTISRLEPEDFAVYFCQQYESSPWTFGQGTKVEIK
notes: Tested as hybridoma supernatant at normalized concentration
B2: 176H4 (antibody, V domains shown)
VH: QVQLVESGGGVVQPGRSLRLSCAASGFTFSSYGMHWVRQAPGKGLEWVAIIWYDGSYKYYADSVKGRFTISRDNSKNTLYLQMSSLRAEDTAVYYCARDAHDFWSGYFAYWGQGALVTVSS
VL: DIVMTQTPLSLSVTPGQPASISCKSSQSLLHGDGKTYLYWYLQKPGQPPQLLIYEVSNRFSGVPDRFSGSGSGTDFTLKISRVEAEDVGIYYCMQSIQIPWTFGQGTRVEIK
notes: as for B1
B3: 48B12 (antibody, V domains shown)
VH: EVQLLESGGGLVQPGGSLRLSCAASGFTFSSYAMNWVRQAPGKGLEWVSAISGRGGNTFYADSVKGRFTISRDNSKNTLYLQMNSLRAEDTAVYYCAKRETYNWNYEGFDYWGQGTLVTVSS
VL: SYELTQPPSVSVSPGQTARITCSGDALPKKYAYWYQQKSGQAPVLVIYEDSKRPSGIPERFSGSSSGTMATLTISGAQVEDEADYYCNSTDSSGNHVVFGGGTKLTVL
notes: as for B1
B4: 22G5 (antibody, V domains shown)
VH: EVQLLESGGGLVQPGGSLRLSCAASGFTFSSYAMNWVRQAPGMGLEWVSVISRSGGYTYYADSVKGRFTISRDNSKNTLYLQMNSLRAEDTAVYYCASRLAVAGSEAFDIWGQGTLVTVSS
VL: DIQMTQSPSSLSASVGDRVTITCRASQNISSYLNWYQQKQGKAPKLLIYAASSLQNGVPSRFSGRGSGTDFTLTISSLQPEDFATYYCQQSYRTPLFTFGPGTKVDFK
notes: as for B1
B5: 54E9 (antibody, V domains shown)
VH: QVQLVQSGAEVKKPGASVKVSCKASGYTFNSYGISWVRLAPGQGLEWMGWISAYNGNTKNAQKLQGRVTMTTDTSTSTAYMELRSLRSDDTAVYYCARHDFWSGYYKGMDVWGQGTTVTVSS
VL: not shown
notes: as for B1
B6: 202A3 (antibody, V domains shown)
VH: QVQLEQSGAEVKKPGASVKVSCKASGYTFTSYDINWVRQATGQGLEWLGWMNPKRGNTGYAQKFQGRVTMTRNTSISTAHMELSSLRSEDTAVYYCARGRYSREDYYYYYDMDVWGQGTTVTVSS
VL: DIQMSQSPSSLSASVGDRVTITCRASQGIRNDLGWYQQKPGKAPKRLICAASRLQSGVPSRFSGSGSGTEFTLTISSLQPEDFAIYYCLQHHDYPFTFGPGTKVDIK
notes: as for B1
B7: 7E11 (antibody, V domains shown)
VH: QVQLVESGGGVVQPGRSLRLSCAASGFTFSSFGMHWVRQAPGKGLEWVAIIWHDGSNKYYADSVKGRFTISRDNSNNTLYLQMSSLRAEDTAVYYCARDLSMGGMDVWGQGTTVTVSS
VL: DIQMTQSPSSLSASVGDRVTIACRASQNIISYLNWYQQKPGKAPKFLIYTASSLQSGVPSRFSGSGSGTDFTLTISSLQPEDFAIYYCQQTYSTPLTFGGGTKVEIK
notes: as for B1
B8: 25A4 (antibody, V domains shown)
VH: QVLLVQSGAEVKRPGASVKVSCKASGYTFTNYDINWVRQATGQGLEWMGWMYPNSGNTGYAQKFQGRVTMTRNTSISTAYMELSSLRSEDTAVYYCASSSGWYYFDYWGQGTLVTVSS
VL: DIVMTQFPDSLAVSLGERATIKCKSSQSVLYSSHNNNYLAWYQQKPGQPPKLLLYWASTRESGVPDRFSGSGSGTEFTLTISSLEAEDVAVYYCQQYYSTPPTFGQGTKVEIK
notes: as for B1
B9: 26C4 (antibody, V domains shown)
VH: B8 VH with L3Q, R13K, T41S, Y52N, K63R, S77N
VL: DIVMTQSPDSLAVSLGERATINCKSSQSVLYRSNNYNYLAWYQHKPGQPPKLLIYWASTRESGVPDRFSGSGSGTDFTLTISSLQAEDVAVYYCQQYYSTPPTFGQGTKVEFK
notes: as for B1
B10: 4A2 (antibody, V domains shown)
VH: B8 VH with L3Q, A9T, R13K, Y52H, M70L
VL: DIVMTQSPDSLAVSLGERATINCKSSQSILHSSNNNNYLAWFQQKPGQPPKLLLYWASTRESGVPDRFSGSGSGTDFTLTISSLQPEDVAVYYCQQYYNTPVTFGPGTKVGIK
notes: as for B1
B11: 29H8 (antibody, V domains shown)
VH: B8 VH with L3Q, K12Q, R13K, Y52N, K63R, T78A
VL: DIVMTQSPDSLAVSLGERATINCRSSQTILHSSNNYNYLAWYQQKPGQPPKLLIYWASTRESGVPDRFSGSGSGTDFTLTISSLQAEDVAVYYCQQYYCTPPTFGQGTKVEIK
notes: as for B1
B12: 194A4 (antibody, V domains shown)
VH: QVQLVQSGTEVKKPGASLKVSCKASGYTFTVYYLNWVRQAPGQGLEWMGWINPNSGGTNYAQKFQGRVTMTRDTSISTAYMELSRLRSDDTAVYYCARGYDILTGWGQGTLVTVSS
VL: EIVLTQSPGTLSLSPGERATLSCRASRGVSNIYLAWYQQKPGQAPRLLIYGASNRATGIPDRFSGSGSGTDFTLTISRLEPEDFAVYYCQHNDYSMFTFGPGTKVDIK
notes: as for B1
B13: 193E7 (antibody, V domains shown)
VH: QVQLQQWGAGLLKPSETLSLTCAVYGGSFSGYFWTWIRQPPGKGLEWIGEINHSGSTNYNPSLKSRVTISVDTSKNQFSLKLSSVTAADTAVYYCARDYGADYWGQGTLVAVSA
VL: DIQMTQSPSSLSASVGDRVTITCRASQGIRNDLGWYQQKPGKAPKRLIYSASSLQRGVPSRFSGSGSGTEFTLTISSLQPEDFATYYCLQHKRYPLTFGGGTKVEIK
notes: as for B1
B14: 7G4 (antibody, V domains shown)
VH: QVQLVESGGGVVQPGRSLRLSCAASGFTFNNYVMHWVRQAPGKGLEWVAVIWYDGSNKYYADSVKGRFTISRDNSKNTLYLQMTSLRAEDTAVYYCAREKYSSNWYDYGMDVWGQGTTVTVSS
VL: B13 VL with K39R, S50A, R56S, F83S, Q90H, H91Q, K92Y, R93S, L96R, G100Q
notes: as for B1
B15: 5E5 (antibody, V domains shown)
VH: B14 VH with N30S, T84N, A97T, K100V, N104G
VL: B13 VL with S50A, R56S, K92Y, R93S, L96R, G100Q, I106V
notes: as for B1
B16: 198D2 (antibody, V domains shown)
VH: QVQLVESGGGVVQPGRSLRLSCAASGFTFRSYGMHWVRQAPGKGLEWVAVIIYDGSYKYYADSVKGRFTISRDNSKNTLYLQMNSLRAEDTAVYYCARTYSGGMDVWGQGTTVTVSS
VL: QSVLTQPPSVSAAPGQKVTISCSGSSSNIGSNYVSWYQQLPGTAPKVLIYDNNKRPSGIPDRFSGSKSGTSATLGITGLQTGDEADYYCGTWDSRLNVGVFGGGTKLTVL
notes: as for B1
B17: 56E5 (antibody, V domains shown)
VH: QVQLVQSGAEVKKPGASVKVSCQASGYTFTGYHMHWVRQAPGQGLEWMGWINPNNNATNYAQKFQGRVTMTRDTSISTAYMELRRLRSDDTAVYHCARDGTSSFDYWGQGTLVTVSS
VL: DIQMTQSPSSVSASVGDRVTITCRASQGIRKWLAWYQQKPGKAPKLLIYAASSLQSGVPSRFSGSGSGTDFTLTISSLQPEDFATYYCQQANSFPFTFGPGTKVDIK
notes: as for B1
B18: 6G7 (antibody, V domains shown)
VH: QVQLVESGGGVVQPGRSLRLSCAASGFTFSSYGMHWVRQTPGKGLEWVAIISYVGKNKYYADSVKGRFTISRDNSKNTLYLQMNSLRAEDTAVYYCARRGNSYGGYGMDVWGQGTTVTVSS
VL: DIQMTQSPSSRSASVGDRVTITCQASQDISNYLNWCQQKPGKALKLLIYDASTLETGVPSRFSGSGSGTDFTFTISSVQPEDIATYYCQQYDNVPITFGQGTRLEIK
notes: as for B1

Molecular target: T1, Mouse ASGR-1
Test: FACS on transfected HEK 293 cells or membrane preps on beads; binding = signal at least 2x irrelevant IgG
Method: Human ASGR-1-specific, ligand competing antibody samples were tested for binding to ASGR-1 from other species (cynomologus monkey ASGR-1, mouse ASGR-1, rat ASGR-1, dog ASGR-1, and pig ASGR-1) as well as to human ASGR-2 in FACS binding assays at normalized antibody concentrations. For cell-based assays, HEK 293 cells expressing the appropriate antigen of interest were mixed with antibody sample or controls, incubated for 1 hour at 4° C., and then washed twice. Cells with bound antibody were then incubated with Alexa Fluor® 647 IgG Fc fragment-specific detection antibody and 7-AAD viability stain for 15 minutes at 4° C., washed once and resuspended in FACS buffer. Samples were analyzed using a BD Accuri™ Flow Cytometer and an Intellicyt HyperCyt Autosampler. As a negative control, supernatants and controls were also screened against HEK 293 cells transfected with empty parental vector. […] For membrane-prep binding assays, ASGR-1 species specific membrane preps were used to coat LumAvidin® microspheres (beads) and tested for binding to selected hybridoma supernatants or controls. Briefly, ASGR-1 species specific membrane preps were incubated with streptavidin-coated LumAvidin® beads for 45 minutes in the dark at room temperature and washed twice. Beads were resuspeneded in FACS buffer containing Stabilguard®. Antigen-bound beads were then incubated with normalized antibody sample for 1 hour in the dark at room temperature, washed twice, incubated with Alexa Fluor® 488 IgG Fc fragment-specific detection antibody for 15 minutes in the dark at room temperature, washed once and finally resuspended in FACS buffer. Samples were analyzed using an Intellicyt iQue™ Screener Platform. FACS buffer supplemented with 1 mM Calcium Chloride was used in all steps. As a negative control, supernatants and controls were also screened against a non-ASGR-1 antigen membrane prep coated on the LumAvidin® beads.

binding result | Binder
no binding | B1
no binding | B2
no binding | B3
no binding | B4
no binding | B5
no binding | B6
no binding | B7
no binding | B8
no binding | B9
no binding | B10
no binding | B11
no binding | B12
no binding | B13
no binding | B14
no binding | B15
no binding | B16
no binding | B17
no binding | B18
